Bounds are passed on as bounds.

The target of test [1] is human CCR8 (human) (UniProt P51685). Nature of the test: cell-based or functional assay.
Test [2] shares this target. Nature of the test: assay not described ('in vitro assays').
The target of test [3] is cynomolgus monkey CCR8 (cynomolgus monkey). Nature of the test: assay not described ('in vitro assays').
Chain of cynomolgus monkey CCR8 (cynomolgus monkey) (O97665 other isoform, or with tags, fused parts or gaps): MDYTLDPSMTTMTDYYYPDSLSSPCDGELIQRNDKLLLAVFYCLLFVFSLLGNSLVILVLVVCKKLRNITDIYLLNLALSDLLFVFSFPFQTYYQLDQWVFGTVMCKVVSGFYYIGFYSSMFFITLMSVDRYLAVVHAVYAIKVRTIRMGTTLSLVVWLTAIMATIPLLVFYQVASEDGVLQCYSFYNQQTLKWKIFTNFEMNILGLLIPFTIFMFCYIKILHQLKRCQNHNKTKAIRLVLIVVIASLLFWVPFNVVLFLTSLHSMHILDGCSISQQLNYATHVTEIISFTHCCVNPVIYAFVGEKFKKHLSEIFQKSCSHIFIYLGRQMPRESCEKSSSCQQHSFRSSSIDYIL

Turning to “murine anti-human CCR8 mAb L263G8 (Biolegend) (antibody)”, in test [1], the IC50 of CCL1 blocking (Ca2+ influx, CHO/hCCR8.Gna15 cells) was 0.0236 µM; the induction fold at plateau (about 40 nM antibody), mFcgRIV Jurkat reporter with CHO/hCCR8 was 11 fold; the induction fold, mFcgRIV Jurkat NFAT-luciferase reporter with CHO/hCCR8, at about 1 nM antibody was > 10 .fold.
One may read the Kd as the equilibrium constant for the complex coming apart. Turning to RO7502175 (antibody), the Kd is 32 µM in test [2] and 27 µM in test [3]. Moreover, the ADCC geometric mean EC50 (calcein release; PBMC effector cells of 8 donors, hCCR8.GNA15 CHO target cells) in test [1] is 3 ng/mL.

The record behind these values is patent US20250297019A1.
